Measurements taken from patent US20200249231.
Where a chain is given by its changes, count along the chain named.

Columns and labels:
[1] = biological target: T1, APRYRQRAA (9-mer on peptide array)
T1 chain: APRYRQRAA

[2] = biological target: T2, DYALQ (5-mer on peptide array)
T2 chain: DYALQ

[3] = biological target: T3, DYWLQ (5-mer on peptide array)
T3 chain: DYWLQ

[4] = biological target: T4, EWALQ (5-mer on peptide array)
T4 chain: EWALQ

[5] = biological target: T5, EWIAQ (5-mer on peptide array)
T5 chain: EWIAQ

[6] = biological target: T6, EWVAQ (5-mer on peptide array)
T6 chain: EWVAQ

[7] = biological target: T7, EYVAQ (5-mer on peptide array)
T7 chain: EYVAQ

[8] = biological target: T8, EYVLQ (5-mer on peptide array)
T8 chain: EYVLQ

[9] = biological target: T9, FRQRQ (5-mer on peptide array)
T9 chain: FRQRQ

[10] = biological target: T10, FYESK (5-mer on peptide array)
T10 chain: FYESK

[11] = biological target: T11, FYKYK (5-mer on peptide array)
T11 chain: FYKYK

[12] = biological target: T12, KYRYK (5-mer on peptide array)
T12 chain: KYRYK

[13] = biological target: T13, QRQTR (5-mer on peptide array)
T13 chain: QRQTR

[14] = biological target: T14, RFYSK (5-mer on peptide array)
T14 chain: RFYSK

[15] = biological target: T15, Thermus thermophilus SlyD FKBP domain with S. mobaraensis MTG Q-tag DYALQ instead of RYRQR
T15 chain: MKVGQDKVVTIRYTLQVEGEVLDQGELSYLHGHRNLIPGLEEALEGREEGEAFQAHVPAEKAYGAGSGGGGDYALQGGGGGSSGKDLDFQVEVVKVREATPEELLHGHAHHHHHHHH

[16] = biological target: T16, Thermus thermophilus SlyD FKBP domain with grafted KalbTG Q-tag RYRQR, 8xHis
T16 chain: T15 chain with D72R, A74R, L75Q, Q76R

[17] = biological target: T17, WYALQ (5-mer on peptide array)
T17 chain: WYALQ

[18] = biological target: T18, YKGRG (5-mer on peptide array)
T18 chain: YKGRG

[19] = biological target: T19, YKYAK (5-mer on peptide array)
T19 chain: YKYAK

[20] = biological target: T20, YKYNK (5-mer on peptide array)
T20 chain: YKYNK

[21] = biological target: T21, YRQRA (5-mer on peptide array)
T21 chain: YRQRA

[22] = biological target: T22, YRQSR (5-mer on peptide array)
T22 chain: YRQSR

[23] = biological target: T23, YRYRQ (5-mer on peptide array)
T23 chain: YRYRQ

Z-[GGGDYALQGGGG] = biological target: T24, Z-[GGGDYALQGGGG]
T24 chain: GGGDYALQGGGG

Z-[GGGFRQRQGGGG] = biological target: T25, Z-[GGGFRQRQGGGG]
T25 chain: GGGFRQRQGGGG

Z-[GGGQRQRQGGGG] = biological target: T26, Z-[GGGQRQRQGGGG]
T26 chain: GGGQRQRQGGGG

Z-[GGGRYGKSGGGG] = biological target: T27, Z-[GGGRYGKSGGGG]
T27 chain: GGGRYGKSGGGG

Z-[GGGYKGRGGGGG] = biological target: T28, Z-[GGGYKGRGGGGG]
T28 chain: GGGYKGRGGGGG

B1: Kutzneria albida microbial transglutaminase, activated enzyme (KalbTGt3) (protein)
chain: APLAPPLAEDRSYRTWRVEDYVEAWERYHGREMTEDERENLARGCIGVTVVNLNREDLSNPPLNLSFGSLRTAEAVQAALNKIVDTHPSPAQYEAAVAKDPILKRLKNVVKALPSWIDSAKLKASIFSKRFYSWQNPDWSEERAHTTYRPDRETDQVDMSTYRYRARPGYVNFDYGWFDQDTNTWWHANHEEPRMVVYQSTLRHYSRPLQDFDEQVFTVAFAKKDGGGSGHHHHHHHH
Q: B1 was tested. Which “peptide array, second round of maturation” value [1] did it give?
A: A second round of maturation on the peptide array yielded APRYRQRAA (SEQ ID NO:24) as the top performing 9-mer substrate

Q: What about the “5-mer peptide array signal with KalbTG” value [2] of the same protein?
A: exhibited relatively lower signal on the KalbTG array

Q: What about the Array signal (log2) [2] of the same protein?
A: 7.22 log2

Q: And the “5-mer peptide array signal with KalbTG” value [3]?
A: exhibited relatively lower signal on the KalbTG array

Q: What about the “5-mer peptide array signal with KalbTG” value [4] of the same protein?
A: exhibited relatively lower signal on the KalbTG array

Q: What about the “5-mer peptide array signal with KalbTG” value [5] of the same protein?
A: exhibited relatively lower signal on the KalbTG array

Q: And the “5-mer peptide array signal with KalbTG” value [6]?
A: exhibited relatively lower signal on the KalbTG array

Q: And the “5-mer peptide array signal with KalbTG” value [7]?
A: exhibited relatively lower signal on the KalbTG array

Q: What about the “5-mer peptide array signal with KalbTG” value [8] of the same protein?
A: exhibited relatively lower signal on the KalbTG array

Q: And the “5-mer peptide array, incorporation of biotinylated amine donor” value [9]?
A: the top 22 glutamine-donor substrates identified on the 5-mer peptide array with KalbTG

Q: And the Array signal (log2) [9]?
A: 8.93 log2

Q: What about the “5-mer peptide array, incorporation of biotinylated glutamine donor Z-APRYRQRAAGGG-PEG-biotin” value [10] of the same protein?
A: the top 17 lysine-donor substrates identified on the 5-mer peptide array with KalbTG

Q: And the “5-mer peptide array, incorporation of biotinylated glutamine donor Z-APRYRQRAAGGG-PEG-biotin” value [11]?
A: the top 17 lysine-donor substrates identified on the 5-mer peptide array with KalbTG

Q: What about the “5-mer peptide array, incorporation of biotinylated glutamine donor Z-APRYRQRAAGGG-PEG-biotin” value [12] of the same protein?
A: the top 17 lysine-donor substrates identified on the 5-mer peptide array with KalbTG

Q: And the “5-mer peptide array, incorporation of biotinylated amine donor” value [13]?
A: the top 22 glutamine-donor substrates identified on the 5-mer peptide array with KalbTG

Q: What about the “5-mer peptide array, incorporation of biotinylated glutamine donor Z-APRYRQRAAGGG-PEG-biotin” value [14] of the same protein?
A: the top 17 lysine-donor substrates identified on the 5-mer peptide array with KalbTG

Q: What about the “labeling with KalbTG K-tag-Cy3 (SDS-PAGE, in-gel fluorescence)” value [15] of the same protein?
A: showed no incorporation of label when incubated with KalbTG

Q: What about the “labeling yield with KalbTG K-tag-Cy3 (SDS-PAGE, in-gel fluorescence)” value [16] of the same protein?
A: approximately 70% yield of a labeled protein species after 15 minutes

Q: What about the “5-mer peptide array signal with KalbTG” value [17] of the same protein?
A: exhibited relatively lower signal on the KalbTG array

Q: What about the Array signal (log2) [18] of the same protein?
A: 12.2 log2

Q: And the “5-mer peptide array, incorporation of biotinylated glutamine donor Z-APRYRQRAAGGG-PEG-biotin” value [19]?
A: the top 17 lysine-donor substrates identified on the 5-mer peptide array with KalbTG

Q: And the “5-mer peptide array, incorporation of biotinylated glutamine donor Z-APRYRQRAAGGG-PEG-biotin” value [20]?
A: the top 17 lysine-donor substrates identified on the 5-mer peptide array with KalbTG

Q: What about the “5-mer peptide array, incorporation of biotinylated amine donor” value [21] of the same protein?
A: the top 22 glutamine-donor substrates identified on the 5-mer peptide array with KalbTG

Q: What about the “5-mer peptide array, incorporation of biotinylated amine donor” value [22] of the same protein?
A: the top 22 glutamine-donor substrates identified on the 5-mer peptide array with KalbTG

Q: What about the “5-mer peptide array, incorporation of biotinylated amine donor” value [23] of the same protein?
A: the top 22 glutamine-donor substrates identified on the 5-mer peptide array with KalbTG

Q: And the Array signal (log2) [23]?
A: 8.99 log2

Q: And the GLDH-coupled activity assay (Z-[GGGDYALQGGGG])?
A: KalbTG exhibited no activity with preferred S. mobaraensis MTG substrates DYALQ (SEQ ID NO: 22) and MLAQG (SEQ ID NO: 13)

Q: What about the Reaction rate in solution (pmol/s), GLDH-coupled assay (Z-[GGGDYALQGGGG]) of the same protein?
A: -0.05 pmol/s

Q: What about the Reaction rate in solution (pmol/s), GLDH-coupled assay (Z-[GGGFRQRQGGGG]) of the same protein?
A: 3.07 pmol/s

Q: And the Reaction rate in solution (pmol/s), GLDH-coupled assay (Z-[GGGQRQRQGGGG])?
A: 2.98 pmol/s

Q: What about the Reaction Rate in Solution (pmol s^-1), GLDH-coupled assay with 200 µM glutamine donor (Z-[GGGRYGKSGGGG]) of the same protein?
A: 2.66 pmol/s

Q: And the Reaction Rate in Solution (pmol s^-1), GLDH-coupled assay with 200 µM glutamine donor (Z-[GGGYKGRGGGGG])?
A: 3.01 pmol/s
